According to patent US20200055939A1 (Genentech, published 2020):

T1: P296A
T1 construct: % monomer 92.3; also called MICA*008.mIgG2a P296A
T1 chain: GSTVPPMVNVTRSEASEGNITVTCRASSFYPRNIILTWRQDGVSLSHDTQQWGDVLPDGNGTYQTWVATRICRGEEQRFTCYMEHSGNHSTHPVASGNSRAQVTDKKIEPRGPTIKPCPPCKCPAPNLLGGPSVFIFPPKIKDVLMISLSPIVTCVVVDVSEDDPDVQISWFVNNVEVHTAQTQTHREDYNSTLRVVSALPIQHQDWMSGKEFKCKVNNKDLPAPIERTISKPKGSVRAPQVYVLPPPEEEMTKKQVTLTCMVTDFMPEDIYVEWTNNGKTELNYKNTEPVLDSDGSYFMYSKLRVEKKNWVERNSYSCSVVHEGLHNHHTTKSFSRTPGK

T2: R240A
T2 construct: % monomer 93.8; also called MICA*008.mIgG2a R240A
T2 chain: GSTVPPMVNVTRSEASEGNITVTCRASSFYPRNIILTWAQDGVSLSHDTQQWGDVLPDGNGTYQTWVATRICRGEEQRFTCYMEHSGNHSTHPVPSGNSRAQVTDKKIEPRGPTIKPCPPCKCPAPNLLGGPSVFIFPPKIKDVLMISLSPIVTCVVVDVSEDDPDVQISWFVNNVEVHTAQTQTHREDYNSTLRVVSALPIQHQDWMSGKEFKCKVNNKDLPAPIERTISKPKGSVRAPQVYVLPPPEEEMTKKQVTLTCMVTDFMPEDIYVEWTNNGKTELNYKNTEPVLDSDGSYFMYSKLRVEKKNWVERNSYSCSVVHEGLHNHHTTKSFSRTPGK

T3: T292A
T3 construct: % monomer 80.56; also called MICA*008.mIgG2a T292A
T3 chain: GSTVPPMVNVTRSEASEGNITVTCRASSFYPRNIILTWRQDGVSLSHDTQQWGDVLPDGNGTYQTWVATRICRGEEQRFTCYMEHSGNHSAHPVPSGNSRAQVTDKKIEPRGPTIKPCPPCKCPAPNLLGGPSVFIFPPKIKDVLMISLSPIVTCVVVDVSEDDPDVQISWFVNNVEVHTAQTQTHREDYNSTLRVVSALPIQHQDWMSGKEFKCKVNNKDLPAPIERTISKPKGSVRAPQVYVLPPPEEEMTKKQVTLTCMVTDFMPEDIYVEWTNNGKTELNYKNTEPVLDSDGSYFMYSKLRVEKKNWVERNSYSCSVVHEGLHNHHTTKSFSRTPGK

T4: V244A
T4 construct: % monomer 97.6; also called MICA*008.mIgG2a V244A
T4 chain: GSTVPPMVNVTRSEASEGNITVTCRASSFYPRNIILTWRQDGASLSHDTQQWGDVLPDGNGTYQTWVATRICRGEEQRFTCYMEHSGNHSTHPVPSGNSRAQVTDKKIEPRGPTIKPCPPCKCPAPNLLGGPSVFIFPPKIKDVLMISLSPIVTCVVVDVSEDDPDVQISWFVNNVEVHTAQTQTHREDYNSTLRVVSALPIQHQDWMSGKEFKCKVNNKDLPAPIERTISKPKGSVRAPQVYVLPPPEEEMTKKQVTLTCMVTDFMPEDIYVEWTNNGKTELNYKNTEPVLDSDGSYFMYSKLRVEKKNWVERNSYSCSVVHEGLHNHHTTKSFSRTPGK

T5: G275A
T5 construct: % monomer 98.9; also called MICA*008.mIgG2a G275A
T5 chain: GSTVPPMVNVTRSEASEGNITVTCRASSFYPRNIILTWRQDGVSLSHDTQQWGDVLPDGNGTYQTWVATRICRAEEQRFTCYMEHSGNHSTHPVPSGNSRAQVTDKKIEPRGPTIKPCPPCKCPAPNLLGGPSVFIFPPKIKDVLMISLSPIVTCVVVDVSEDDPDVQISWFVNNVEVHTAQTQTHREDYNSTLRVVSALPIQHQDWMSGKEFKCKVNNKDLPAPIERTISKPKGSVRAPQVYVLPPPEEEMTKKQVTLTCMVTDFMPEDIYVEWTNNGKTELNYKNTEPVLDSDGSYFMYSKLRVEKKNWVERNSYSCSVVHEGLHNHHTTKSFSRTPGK

T6: Y283A
T6 construct: % monomer 92.7; also called MICA*008.mIgG2a Y283A
T6 chain: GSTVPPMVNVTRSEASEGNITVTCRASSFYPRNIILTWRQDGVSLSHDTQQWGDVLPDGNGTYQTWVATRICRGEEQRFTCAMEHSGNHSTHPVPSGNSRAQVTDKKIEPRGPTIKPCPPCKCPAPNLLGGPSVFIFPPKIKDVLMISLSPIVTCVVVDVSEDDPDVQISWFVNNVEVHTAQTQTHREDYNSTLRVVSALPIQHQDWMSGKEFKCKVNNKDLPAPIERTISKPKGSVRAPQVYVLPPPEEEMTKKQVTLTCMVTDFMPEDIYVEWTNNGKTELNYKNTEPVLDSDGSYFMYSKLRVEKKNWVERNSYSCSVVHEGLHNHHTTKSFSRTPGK


Legend:
Test in all cases: SPR, Fab over captured MICA*008.mIgG2a Ala variant; KD relative to wild type
P296A = target: T1, P296A
R240A = target: T2, R240A
T292A = target: T3, T292A
V244A = target: T4, V244A
G275A = target: T5, G275A
Y283A = target: T6, Y283A

fold-decrease in affinity (P296A)	fold-decrease in affinity (R240A)	fold-decrease in affinity (T292A)	fold-decrease in affinity (V244A)	fold-decrease in affinity (G275A)	fold-decrease in affinity (Y283A)	Binder
1.9						1D5 Fab (Fab, V domains shown, Expressed in E. coli as chimera of murine variable and human constant domains; not shown: human IgG1 CH1 constant domain; human kappa CL constant domain) VH: EIQLQQSGPELVKPGASVKVSCKASGYAFTSQNIYWVKQSHGKSLEWIGYIEPYNVVPMYNPKFKGKATLTVDKSSSSAYIHLNSLTSEDSAIYYCARSGSSNFDYWGQGTTLTVSS VL: EIILTQSPTTMAASPGEKITITCSASSSISSHYLHWYQQKSGFSPKLLIYRTSNLASGVPARFSGSGSGTSYSLTIGTMEAEDVATYYCQQGSSLPLTFGAGTKVEIK
0.6	1	1.3	1	1	0.2	2E5.2.3 Fab (Fab, V domains shown) VH: QGQMQQSGAELVKPGASVKLSCKTSGFTFSDNYISWLKQKPGQSLEWIAWIYAGTGGTSYNQKFTAKAQLTVDTSSSTAYMQFSSLTTEDSAIYYCARHDYYGTSGAWFAYWGQGTLVTVSA VL: DVLMTQTPLSLPVSLGDQASLSCRSSQNIVHINGNTYLEWYLQKPGQSPKLLIYKVSNRFSGVPDRFSGSGSGTDFTLKISRVEAEDLGVYYCFQGSHVPWTFGGGTKVEIK
1	4.5	1.7		4.6	1.7	6F8.7 Fab (Fab, V domains shown) VH: DVQLQGSGPGLVKPSQSLSLTCSVTGYSITNDYYWNWIRQFPGNKLEWMGFISFGGSNNYNPSLKNRISITRDTSKNQFFLKLSSVTTEDTATYYCARYDGRGAWFAYWAQGTLVTVSA VL: DIQMTQSPASLSASVGETVTITCRASGNIHNYLAWYQQKQGKSPQLLVYDAITLADGVPSRFSGSGSGTQYSLKINSLQPEDFGNYYCQHFWSFPLTFGAGTKVEIK
0.7		2.1				7D4.6 Fab (Fab, V domains shown) VH: DVQLQESGPGLVKPSQSLSLTCTVTGYSITSDYAWNWIRQFPRNKLEWMGYINYSGTTNYNPSLKSRISITRDTSKNQFFLQLISVTTEDTATYYCSYYRYDGAWFPYWGQGTLVTVSA VL: DIQMTQSPASLSASVGETVTITCRASGNIHNYLAWYQQKQGKSPQLLVYNAIMLADGVPSRFSASGSGTQYSLKINSLQPEDFGSYYCQHFWSFPLTFGAGTKVEIK
